Results on 94 variants are retold here after the supplement of paper PMC10567573.

B1: KCNG1 (parent)
chain: AVNLSVSTLPSLREEEEQVRAHAP
B2: JUNB (parent)
chain: FVKALDDLHKMNHVTPPNVSLGAT
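Note: lentivirally expressed fusions sorted by FACS into six bins by GFP to DsRed ratio, PSI derived from sequencing read proportions per bin multiplied by bin number.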

The variants in the first data set derive from B1. The data set is described as follows: protein stability index of a GFP-peptide fusion (GPS, HEK-293T) (PSI 1-6); higher = more stable. The following applies: c terminus: a fixed tail appended.
Regarding LVNLSVSTLPSLREEEEQVRAHAP, the protein stability index was found to be 4.14. Regarding FVNLSVSTLPSLREEEEQVRAHAP, the protein stability index came to 2.57. With KVNLSVSTLPSLREEEEQVRAHAP, the protein stability index turned out to be 5.28. Same read-out and setting: as for IVNLSVSTLPSLREEEEQVRAHAP, the figure is 4.48; as for DVNLSVSTLPSLREEEEQVRAHAP, 5.52.

Regarding EVNLSVSTLPSLREEEEQVRAHAP, the protein stability index is 4.75.

In the case of HVNLSVSTLPSLREEEEQVRAHAP, the protein stability index came to 5.12. Consider QVNLSVSTLPSLREEEEQVRAHAP, for which the protein stability index came to 4.28.

GVNLSVSTLPSLREEEEQVRAHAP: the protein stability index turned out to be 4.96.

For CVNLSVSTLPSLREEEEQVRAHAP, the protein stability index turned out to be 5. The same measure, in the same setting: under MVNLSVSTLPSLREEEEQVRAHAP stands 4.61. Still for that read-out and setting: under AVNGSVSTLPSLREEEEQVRAHAP stands 5.24; under AVNDSVSTLPSLREEEEQVRAHAP, 5.58. As to AVNVSVSTLPSLREEEEQVRAHAP, the protein stability index is 5.01. Turning to AVNQSVSTLPSLREEEEQVRAHAP, the protein stability index was found to be 5.44.

Consider AVNTSVSTLPSLREEEEQVRAHAP, for which the protein stability index came out at 4.9.

In the case of AVNNSVSTLPSLREEEEQVRAHAP, the protein stability index worked out at 5.55. As to AVNFSVSTLPSLREEEEQVRAHAP, the protein stability index worked out at 4.51. On the same count and under the same terms, as for AVNSSVSTLPSLREEEEQVRAHAP, the figure is 5.05; as for AVNCSVSTLPSLREEEEQVRAHAP, 4.88. AVNESVSTLPSLREEEEQVRAHAP: the protein stability index turned out to be 5.73. Consider AVNKSVSTLPSLREEEEQVRAHAP, for which the protein stability index was 5.24.

AVNPSVSTLPSLREEEEQVRAHAP: the protein stability index was 5.32. As to AVNMSVSTLPSLREEEEQVRAHAP, the protein stability index was 5.05. Take AVNYSVSTLPSLREEEEQVRAHAP: the protein stability index came to 4.98. As to AVNRSVSTLPSLREEEEQVRAHAP, the protein stability index is 5.03. The same measure, in the same setting: under AVNASVSTLPSLREEEEQVRAHAP stands 4.86; under AVNHSVSTLPSLREEEEQVRAHAP, 5.72; under AVNWSVSTLPSLREEEEQVRAHAP, 4.45. Turning to AVNISVSTLPSLREEEEQVRAHAP, the protein stability index is 4.8.

In a further data set the parent is B2. The data set is described as above. The following applies: c terminus: a fixed tail appended.
For the variant FVKALDDLHKMNHVTPPNVSLAAT, the protein stability index worked out at 1.85. In the case of FVKALDDLHKMNHVTPPNVSLLAT, the protein stability index was found to be 2.5. Consider FVKALDDLHKMNHVTPPNVSLEAT, for which the protein stability index was 2.12. The same measure, in the same setting: under FVKALDDLHKMNHVTPPNVSLMAT stands 1.72; under FVKALDDLHKMNHVTPPNVSLRAT, 1.2. Regarding FVKALDDLHKMNHVTPPNVSLVAT, the protein stability index worked out at 2.27. With FVKALDDLHKMNHVTPPNVSLTAT, the protein stability index worked out at 1.82. Turning to FVKALDDLHKMNHVTPPNVSLSAT, the protein stability index amounted to 2.16.

Turning to FVKALDDLHKMNHVTPPNVSLYAT, the protein stability index worked out at 1.24. Still for that read-out and setting: under FVKALDDLHKMNHVTPPNVSLQAT stands 2.66; under FVKALDDLHKMNHVTPPNVSLNAT, 2.28; under FVKALDDLHKMNHVTPPNVSLCAT, 2.47.

Regarding FVKALDDLHKMNHVTPPNVSLFAT, the protein stability index is 2.48. As for FVKALDDLHKMNHVTPPNVSLHAT, the protein stability index worked out at 1.54. Turning to FVKALDDLHKMNHVTPPNVSLDAT, the protein stability index was 2.43.

With FVKALDDLHKMNHVTPPNVSLKAT, the protein stability index was 1.46. Still for that read-out and setting: under FVKALDDLHKMNHVTPPNVSLIAT stands 2.41; under FVKALDDLHKMNHVTPPNVSLPAT, 2.15.

For FVKALDDLHKMNHVTPPNVSLGNT, the protein stability index was 2.02. As for FVKALDDLHKMNHVTPPNVSLGGT, the protein stability index turned out to be 1.27.

Take FVKALDDLHKMNHVTPPNVSLGST: the protein stability index was found to be 2.05. Still for that read-out and setting: under FVKALDDLHKMNHVTPPNVSLGMT stands 1.85; under FVKALDDLHKMNHVTPPNVSLGTT, 1.31; under FVKALDDLHKMNHVTPPNVSLGCT, 2.16. On to FVKALDDLHKMNHVTPPNVSLGFT, for which the protein stability index is 1.41. As to FVKALDDLHKMNHVTPPNVSLGKT, the protein stability index was determined as 2.06.

Take FVKALDDLHKMNHVTPPNVSLGQT: the protein stability index stood at 1.46. Take FVKALDDLHKMNHVTPPNVSLGLT: the protein stability index was found to be 2.73. Turning to FVKALDDLHKMNHVTPPNVSLGPT, the protein stability index was found to be 2.46. On to FVKALDDLHKMNHVTPPNVSLGET, for which the protein stability index was determined as 2.17. Take FVKALDDLHKMNHVTPPNVSLGRT: the protein stability index was determined as 2.39.

Consider FVKALDDLHKMNHVTPPNVSLGYT, for which the protein stability index was 1.65.

In the case of FVKALDDLHKMNHVTPPNVSLGIT, the protein stability index came to 1.77. As to FVKALDDLHKMNHVTPPNVSLGHT, the protein stability index came to 1.71.

Take FVKALDDLHKMNHVTPPNVSLGVT: the protein stability index was 2.

Consider FVKALDDLHKMNHVTPPNVSLGWT, for which the protein stability index is 1.72. FVKALDDLHKMNHVTPPNVSLGDT: the protein stability index worked out at 2.11. Regarding FVKALDDLHKMNHVTPPNVSLGAW, the protein stability index was 1.54. In the case of FVKALDDLHKMNHVTPPNVSLGAL, the protein stability index worked out at 1.66.

As for FVKALDDLHKMNHVTPPNVSLGAA, the protein stability index is 1.51. Consider FVKALDDLHKMNHVTPPNVSLGAQ, for which the protein stability index was 1.83. As to FVKALDDLHKMNHVTPPNVSLGAR, the protein stability index was 1.33. As to FVKALDDLHKMNHVTPPNVSLGAI, the protein stability index came to 1.92. Still for that read-out and setting: under FVKALDDLHKMNHVTPPNVSLGAD stands 1.86. On to FVKALDDLHKMNHVTPPNVSLGAF, for which the protein stability index was 2.66. As for FVKALDDLHKMNHVTPPNVSLGAH, the protein stability index was determined as 1.83. Consider FVKALDDLHKMNHVTPPNVSLGAE, for which the protein stability index amounted to 2.52. Turning to FVKALDDLHKMNHVTPPNVSLGAV, the protein stability index was 2.46. For FVKALDDLHKMNHVTPPNVSLGAY, the protein stability index worked out at 1.62. FVKALDDLHKMNHVTPPNVSLGAK: the protein stability index is 1.75. For FVKALDDLHKMNHVTPPNVSLGAC, the protein stability index was 1.33. Consider FVKALDDLHKMNHVTPPNVSLGAG, for which the protein stability index stood at 1.56. Still for that read-out and setting: under FVKALDDLHKMNHVTPPNVSLGAN stands 1.6. Regarding FVKALDDLHKMNHVTPPNVSLGAS, the protein stability index came out at 2.

Regarding FVKALDDLHKMNHVTPPNVSLGAM, the protein stability index came to 1.81. Same read-out and setting: under FVKALDDLHKMNHVTPPNVSSGAT stands 2.25; under FVKALDDLHKMNHVTPPNVSWGAT, 1.95; under FVKALDDLHKMNHVTPPNVSYGAT, 1.52. For FVKALDDLHKMNHVTPPNVSPGAT, the protein stability index came to 1.96. On to FVKALDDLHKMNHVTPPNVSTGAT, for which the protein stability index is 1.78. On to FVKALDDLHKMNHVTPPNVSRGAT, for which the protein stability index came to 2.15. The same measure, in the same setting: under FVKALDDLHKMNHVTPPNVSVGAT stands 1.65. The same measure, in the same setting: under FVKALDDLHKMNHVTPPNVSNGAT stands 1.89; under FVKALDDLHKMNHVTPPNVSQGAT, 2.36.
